Tests used:
[1] = molecular target: GluCl-EGFP (Caenorhabditis elegans glutamate-gated chloride channel, EGFP gene fusion) (Caenorhabditis elegans) (UniProt G5EBR3); assay: SEC
[2] = molecular target: the molecule itself; assay: SEC

Chain of GluCl-EGFP (Caenorhabditis elegans glutamate-gated chloride channel, EGFP gene fusion) (G5EBR3 21-461): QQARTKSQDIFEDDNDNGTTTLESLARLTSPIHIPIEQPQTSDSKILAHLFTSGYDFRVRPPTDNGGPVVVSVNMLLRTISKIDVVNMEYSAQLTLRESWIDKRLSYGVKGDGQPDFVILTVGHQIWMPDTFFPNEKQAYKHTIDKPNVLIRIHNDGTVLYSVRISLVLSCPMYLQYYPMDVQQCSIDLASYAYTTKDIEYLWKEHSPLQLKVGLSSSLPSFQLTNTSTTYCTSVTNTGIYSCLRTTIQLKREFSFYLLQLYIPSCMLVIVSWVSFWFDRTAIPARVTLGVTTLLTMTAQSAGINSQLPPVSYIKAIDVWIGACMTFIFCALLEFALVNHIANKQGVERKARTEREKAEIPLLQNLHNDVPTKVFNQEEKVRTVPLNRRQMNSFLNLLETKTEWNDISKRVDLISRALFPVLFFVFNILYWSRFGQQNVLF

Row | Molecule | stoichiometry N [1] | stoichiometry N [2]
1 | GluCl-EGFP (Caenorhabditis elegans glutamate-gated chloride channel, EGFP gene fusion) (from UniProt G5EBR3 21-461) (natural protein) | 5 | 
2 | cASIC463 (chicken acid-sensing ion channel 1a truncated 64 residues from the carboxy terminus), N-terminal eGFP tagged (domain or fragment, Gallus gallus, UniProt Q1XA76 1-463, looked up) MMDLKVDEEEVDSGQPVSIQAFASSSTLHGISHIFSYERLSLKRVVWALCFMGSLALLALVCTNRIQYYFLYPHVTKLDEVAATRLTFPAVTFCNLNEFRFSRVTKNDLYHAGELLALLNNRYEIPDTQTADEKQLEILQDKANFRNFKPKPFNMLEFYDRAGHDIREMLLSCFFRGEQCSPEDFKVVFTRYGKCYTFNAGQDGKPRLITMKGGTGNGLEIMLDIQQDEYLPVWGETDETSFEAGIKVQIHSQDEPPLIDQLGFGVAPGFQTFVSCQEQRLIYLPPPWGDCKATTGDSEFYDTYSITACRIDCETRYLVENCNCRMVHMPGDAPYCTPEQYKECADPALDFLVEKDNEYCVCEMPCNVTRYGKELSMVKIPSKASAKYLAKKYNKSEQYIGENILVLDIFFEALNYETIEQKKAYEVAGLLGDIGGQMGLFIGASILTVLELFDYAYEVIKHR |  | 3

— publication PMC4291175 (Nature protocols, 2014)
